Results published in PMC10130748.

T1: soluble recombinant integrin αvβ3, P06756;P05106
T1 chain 1: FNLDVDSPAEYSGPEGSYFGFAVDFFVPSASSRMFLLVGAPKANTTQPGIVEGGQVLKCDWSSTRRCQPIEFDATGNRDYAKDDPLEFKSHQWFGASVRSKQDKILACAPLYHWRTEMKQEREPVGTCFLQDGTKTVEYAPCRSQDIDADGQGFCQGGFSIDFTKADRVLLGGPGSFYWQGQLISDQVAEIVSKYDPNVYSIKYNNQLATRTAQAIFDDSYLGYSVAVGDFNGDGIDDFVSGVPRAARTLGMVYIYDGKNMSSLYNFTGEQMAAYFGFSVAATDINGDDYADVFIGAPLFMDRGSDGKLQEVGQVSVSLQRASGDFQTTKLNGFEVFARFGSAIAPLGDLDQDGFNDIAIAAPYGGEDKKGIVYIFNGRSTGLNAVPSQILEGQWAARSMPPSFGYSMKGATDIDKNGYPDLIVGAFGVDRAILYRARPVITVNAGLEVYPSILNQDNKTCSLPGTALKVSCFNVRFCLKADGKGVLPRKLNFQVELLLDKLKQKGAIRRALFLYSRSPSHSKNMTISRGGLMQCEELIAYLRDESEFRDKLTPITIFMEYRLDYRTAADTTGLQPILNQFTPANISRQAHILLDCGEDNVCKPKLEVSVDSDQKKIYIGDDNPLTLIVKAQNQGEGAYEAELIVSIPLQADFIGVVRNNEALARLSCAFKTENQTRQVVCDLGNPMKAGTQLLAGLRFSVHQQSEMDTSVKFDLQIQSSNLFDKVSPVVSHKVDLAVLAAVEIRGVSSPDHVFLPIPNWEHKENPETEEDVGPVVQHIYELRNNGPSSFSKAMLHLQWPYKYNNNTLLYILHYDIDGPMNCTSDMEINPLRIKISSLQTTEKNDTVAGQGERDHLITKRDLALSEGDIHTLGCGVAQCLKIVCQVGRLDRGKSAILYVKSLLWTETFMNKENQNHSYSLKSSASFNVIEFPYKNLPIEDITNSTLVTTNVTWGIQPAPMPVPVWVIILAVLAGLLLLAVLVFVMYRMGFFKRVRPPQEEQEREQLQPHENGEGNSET
T1 chain 2: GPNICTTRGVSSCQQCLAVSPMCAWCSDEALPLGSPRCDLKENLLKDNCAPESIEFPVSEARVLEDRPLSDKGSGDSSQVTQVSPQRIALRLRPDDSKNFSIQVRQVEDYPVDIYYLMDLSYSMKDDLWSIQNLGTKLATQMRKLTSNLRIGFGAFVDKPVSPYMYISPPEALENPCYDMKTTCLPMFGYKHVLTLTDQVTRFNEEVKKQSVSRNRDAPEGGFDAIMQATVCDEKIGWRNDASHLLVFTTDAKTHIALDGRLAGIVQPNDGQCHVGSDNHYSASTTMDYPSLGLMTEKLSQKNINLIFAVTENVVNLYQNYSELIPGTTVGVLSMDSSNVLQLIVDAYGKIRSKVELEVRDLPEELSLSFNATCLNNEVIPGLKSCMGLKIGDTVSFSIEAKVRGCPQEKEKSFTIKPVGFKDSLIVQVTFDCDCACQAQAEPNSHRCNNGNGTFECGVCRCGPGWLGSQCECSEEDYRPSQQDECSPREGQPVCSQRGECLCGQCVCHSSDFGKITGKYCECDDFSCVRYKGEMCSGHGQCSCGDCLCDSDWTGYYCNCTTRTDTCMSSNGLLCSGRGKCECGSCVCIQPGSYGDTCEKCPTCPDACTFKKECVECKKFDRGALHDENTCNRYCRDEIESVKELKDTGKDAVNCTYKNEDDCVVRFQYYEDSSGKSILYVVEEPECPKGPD


How the values were obtained:
[1] = molecular target: soluble recombinant integrin αIIbβ3, P08514;P05106; experiment: ELISA-type binding assay (OD450); conditions: chain shown with the change; CD62P 50 µg/ml; 1 mM Mn2+; parent: est. 0.54; read off a plot
[2] = molecular target: T1, soluble recombinant integrin αvβ3, …; experiment: ELISA-type binding assay (OD450); conditions: chain shown with the change; CD62P 50 µg/ml; 1 mM Mn2+; parent: est. 0.55; read off a plot

Row | response [1] [OD450] | response [2] [OD450] | Binder
1 | 1.3 | 1.2 | CD62P (P-selectin) lectin domain (residues 1–117), wild type R54E; K55E (protein) WTYHYSTKAYSWNISRKYCQNRYTDLVAIQNKNEIDYLNKVLPYYSSYYWIGIEENNKTWTWVGTKKALTNEAENWADNEPNNKRNNEDCVEIYIKSPSAPGKWNDEHCLKKKHALC
2 | 0.12 | 0.14 | CD62P (P-selectin) lectin domain (residues 1–117), wild type R16E; K17E (protein) WTYHYSTKAYSWNISEEYCQNRYTDLVAIQNKNEIDYLNKVLPYYSSYYWIGIRKNNKTWTWVGTKKALTNEAENWADNEPNNKRNNEDCVEIYIKSPSAPGKWNDEHCLKKKHALC
3 | 0.3 | 0.35 | CD62P (P-selectin) lectin domain (residues 1–117), wild type K66E; K67E (protein) WTYHYSTKAYSWNISRKYCQNRYTDLVAIQNKNEIDYLNKVLPYYSSYYWIGIRKNNKTWTWVGTEEALTNEAENWADNEPNNKRNNEDCVEIYIKSPSAPGKWNDEHCLKKKHALC
4 | 0.19 | 0.24 | CD62P (P-selectin) lectin domain (residues 1–117), wild type K84E; R85E (protein) WTYHYSTKAYSWNISRKYCQNRYTDLVAIQNKNEIDYLNKVLPYYSSYYWIGIRKNNKTWTWVGTKKALTNEAENWADNEPNNEENNEDCVEIYIKSPSAPGKWNDEHCLKKKHALC
5 | 0.76 | 0.8 | CD62P (P-selectin) lectin domain (residues 1–117), wild type E88D (protein) WTYHYSTKAYSWNISRKYCQNRYTDLVAIQNKNEIDYLNKVLPYYSSYYWIGIRKNNKTWTWVGTKKALTNEAENWADNEPNNKRNNDDCVEIYIKSPSAPGKWNDEHCLKKKHALC
6 | 0.27 | 0.31 | CD62P (P-selectin) lectin domain (residues 1–117), wild type K58E (protein) WTYHYSTKAYSWNISRKYCQNRYTDLVAIQNKNEIDYLNKVLPYYSSYYWIGIRKNNETWTWVGTKKALTNEAENWADNEPNNKRNNEDCVEIYIKSPSAPGKWNDEHCLKKKHALC
